# Data published in patent publication US20260275319A1 (MAX PLANCK GESELLSCHAFT ZUR F RDERUNG DER WISSENSCHAFTEN E V, published 2026).
# T1: MtrH of M. mazei (subunit of the MtrA-MtrH complex), from whole cell extract (Methanosarcina mazei)
# T1 sequence (P80650 1-316, looked up): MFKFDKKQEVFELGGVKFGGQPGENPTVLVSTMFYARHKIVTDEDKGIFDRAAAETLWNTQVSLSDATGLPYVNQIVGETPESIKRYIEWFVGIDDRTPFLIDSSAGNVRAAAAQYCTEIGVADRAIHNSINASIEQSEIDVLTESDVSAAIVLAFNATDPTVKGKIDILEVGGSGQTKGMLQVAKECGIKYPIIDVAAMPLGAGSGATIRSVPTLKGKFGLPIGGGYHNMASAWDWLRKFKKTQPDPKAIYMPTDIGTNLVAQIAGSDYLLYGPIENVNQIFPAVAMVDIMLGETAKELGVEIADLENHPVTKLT
# T2: MtrG of M. mazei (subunit of the MtrA-MtrH complex), from whole cell extract (Methanosarcina mazei)
# T2 sequence (P80656 whole entry, looked up): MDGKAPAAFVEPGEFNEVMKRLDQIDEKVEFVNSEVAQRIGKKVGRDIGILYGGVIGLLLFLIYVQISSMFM
# T3: MtrB of M. mazei (subunit of the MtrA-MtrH complex), from whole cell extract (Methanosarcina mazei)
# T3 sequence (P80655 whole entry, looked up): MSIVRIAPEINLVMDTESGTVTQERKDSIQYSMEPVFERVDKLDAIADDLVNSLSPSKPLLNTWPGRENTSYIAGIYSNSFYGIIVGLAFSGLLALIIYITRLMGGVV
# T4: MtrF of M. mazei (subunit of the MtrA-MtrH complex), from whole cell extract (Methanosarcina mazei)
# T4 sequence (P80654 whole entry, looked up): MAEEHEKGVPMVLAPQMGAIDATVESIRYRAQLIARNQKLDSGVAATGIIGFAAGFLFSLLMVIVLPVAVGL
# T5: MtrE of M. mazei (subunit of the MtrA-MtrH complex), from whole cell extract (Methanosarcina mazei)
# T5 sequence (P80651 whole entry, looked up): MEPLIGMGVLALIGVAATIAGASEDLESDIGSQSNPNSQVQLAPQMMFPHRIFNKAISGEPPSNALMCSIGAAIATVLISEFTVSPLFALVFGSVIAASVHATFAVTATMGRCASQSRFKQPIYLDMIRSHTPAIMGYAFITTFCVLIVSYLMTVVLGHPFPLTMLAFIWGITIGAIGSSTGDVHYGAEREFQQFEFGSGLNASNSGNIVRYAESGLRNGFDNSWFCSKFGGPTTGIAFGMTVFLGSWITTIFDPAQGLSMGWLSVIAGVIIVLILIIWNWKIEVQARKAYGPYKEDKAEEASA
# B1: M. mazei Adriase with C-terminal HA-tag (enzyme)
# chain: TLVIAFIGKNGAVMAGDMREITFEGEKPDREKLEKELYSGSIVTDEEMQKKAEEFGVKITVADCKEKVSERNGVLVGEVSSAEGGVVKKRRLYASAGNFAIAELINTEMTLTSQGKGSNFIAFGNEFTKQVANKCFKDNWTKKSNLQDAVKILILCMETVARKTASVSKQFMIVQTASNADVLKVVEKDRNCGSYPYDVPDYA
# notes: also called MM_2909
# B2: M. mazei Adriase with C-terminal Myc-tag (enzyme)
# chain: TLVIAFIGKNGAVMAGDMREITFEGEKPDREKLEKELYSGSIVTDEEMQKKAEEFGVKITVADCKEKVSERNGVLVGEVSSAEGGVVKKRRLYASAGNFAIAELINTEMTLTSQGKGSNFIAFGNEFTKQVANKCFKDNWTKKSNLQDAVKILILCMETVARKTASVSKQFMIVQTASNADVLKVVEKDRNCGSEQKLISEEDL
# notes: also called MM_2909
# Assays:
# [1] = molecular target: T1, MtrH of M. mazei (subunit of the …); test: pulldown from M. mazei whole cell extract with HA-tagged Adriase, LC-MS/MS (Experiment 2.3)
# [2] = molecular target: T2, MtrG of M. mazei (subunit of the …); test: as above
# [3] = molecular target: T3, MtrB of M. mazei (subunit of the …); test: as above
# [4] = molecular target: T4, MtrF of M. mazei (subunit of the …); test: as above
# [5] = molecular target: T5, MtrE of M. mazei (subunit of the …); test: as above
# [6] = molecular target: T1, MtrH of M. mazei (subunit of the …); test: pulldown from M. mazei whole cell extract with Myc-tagged Adriase, LC-MS/MS (Experiment 2.2)
# [7] = molecular target: T2, MtrG of M. mazei (subunit of the …); test: as above
# [8] = molecular target: T3, MtrB of M. mazei (subunit of the …); test: as above
# [9] = molecular target: T5, MtrE of M. mazei (subunit of the …); test: as above
binder,measurement,setting,value
B1,Intensity (mass spectrometry),[1],2e+08 arbitrary units
same,Intensity (mass spectrometry),[2],1.5e+07 arbitrary units
same,Intensity (mass spectrometry),[3],6.2e+06 arbitrary units
same,Intensity (mass spectrometry),[4],430000 arbitrary units
same,Intensity (mass spectrometry),[5],3.8e+06 arbitrary units
B2,Intensity (mass spectrometry),[6],6.5e+07 arbitrary units
same,Intensity (mass spectrometry),[7],1.2e+06 arbitrary units
same,Intensity (mass spectrometry),[8],3.2e+06 arbitrary units
same,Intensity (mass spectrometry),[9],2.2e+06 arbitrary units
